The results in this text go back to publication PMC8979313.

The data set concerns the target T1, Pr(brC)2 (UniProt P03069 226-249+=GC, internal_change).
T1 chain: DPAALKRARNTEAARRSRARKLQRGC
Put plainly: EMSA.

B1: Random (dsDNA)
DNA 1: AGCGCACGTCCTGCACGTC
DNA 2: GACGTGCAGGACGTGCGCT
Regarding B1, the binding result is “no binding”.
